Assay results published in publication PMC9087282, “The W-Acidic Motif of Histidine Kinase WalK Is Required for Signaling and Transcriptional Regulation in Streptococcus mutans” (Frontiers in Microbiology, 2022).

Assays:
[1] = target: S. mutans WalR full-length (Streptococcus mutans UA159); assay: ITC; MicroCal iTC200, 25°C; 500 μM WalK (196–450) WT or CTT mutant in the syringe, 20 μM full-length WalR in the cell; 20 mM Tris-HCl pH 8.0, 200 mM NaCl, 20% glycerol
[2] = target: GST fusion protein with full-length S. aureus WalR (1–233) (Staphylococcus aureus NCTC8325) (UniProt Q2G2U6)
WalK (196-450) = WalK (196-450) (Streptococcus mutans UA159, UniProt Q8DT64 196-450); assay: EMSA; settings: protein: recombinant; tags: N-terminal His
WalR DBD = WalR DBD (Streptococcus mutans UA159, UniProt Q93MY4 129-235); assay: EMSA; 20 uM DNA; complex released by WalK 196-450 (W443A and delta-tail WalK compete less); settings: protein: recombinant; chain copies: 2
WalR full-length = WalR full-length (Streptococcus mutans UA159, UniProt Q93MY4 1-235); assay: EMSA; 20 uM DNA; complex released by increasing WalK 196-450; settings: protein: recombinant; chain copies: 2
[3] = target: T1, S. aureus WalK (364–608) WT (Staphylococcus aureus NCTC8325, UniProt Q2G2U4 364-608); assay: pull-down; GST-tagged WalR protein held on glutathione agarose beads, His-tagged WalK as prey, equal molar amounts (~3 μl of 50 μM each) in 1 ml of 20 mM Tris-HCl pH 8.0, 200 mM NaCl, 5% glycerol, 2 mM EDTA, 2 h at 4°C; SDS-PAGE stained with CBB; settings: both partners purified
T1 construct: cloned in pET-His; source: E. coli BL21 (DE3), purified (Ni-NTA, Superdex 200); not shown: His tag, N-terminal, kept
T1 sequence (looked up): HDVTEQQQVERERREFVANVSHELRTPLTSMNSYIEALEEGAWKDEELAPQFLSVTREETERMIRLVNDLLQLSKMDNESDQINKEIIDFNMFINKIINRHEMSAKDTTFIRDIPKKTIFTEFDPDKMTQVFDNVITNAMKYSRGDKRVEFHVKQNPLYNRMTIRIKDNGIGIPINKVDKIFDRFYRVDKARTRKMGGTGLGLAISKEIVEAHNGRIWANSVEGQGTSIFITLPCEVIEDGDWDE

[4] = target: T2, S. aureus WalK (364–608) D605A (Staphylococcus aureus NCTC8325, UniProt Q2G2U4 364-608, D605A); assay: as above; settings: both partners purified
T2 construct: source: E. coli BL21 (DE3), purified (Ni-NTA, Superdex 200); not shown: His tag, N-terminal, kept
T2 sequence: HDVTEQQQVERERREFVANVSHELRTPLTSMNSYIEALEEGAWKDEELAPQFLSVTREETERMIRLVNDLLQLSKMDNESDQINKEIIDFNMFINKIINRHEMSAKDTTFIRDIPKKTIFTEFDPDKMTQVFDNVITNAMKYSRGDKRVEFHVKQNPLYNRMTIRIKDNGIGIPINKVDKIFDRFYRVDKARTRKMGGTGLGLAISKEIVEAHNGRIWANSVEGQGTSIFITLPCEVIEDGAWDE

## S. mutans WalK (196–450) WT (domain or fragment)
[1]
  Kd: 1.21 µM

## S. aureus WalK (364–608) D607A (from UniProt Q2G2U4 364-608) (domain or fragment)
[2]
  phosphotransferase activity of S. aureus WalK (364–608) with WalR (loss of phospho-WalK, at 30 min): 2 ×

## S. aureus WalK (364–608) W606A (from UniProt Q2G2U4 364-608) (domain or fragment)
[2]
  phosphotransferase activity of S. aureus WalK (364–608) with WalR (loss of phospho-WalK, at 30 min): 2 ×

B1: gtfC promoter 25-mer (dsDNA)
DNA 1: GTTTGTTATAAAAGTGTTACAATAC
DNA 2: GTATTGTAACACTTTTATAACAAAC
WalK (196-450)
  binding result: no binding
WalR DBD
  binding result: binds
WalR full-length
  binding result: binds

B2: GST fusion protein with full-length S. aureus WalR (1–233) (natural protein, Staphylococcus aureus NCTC8325, UniProt Q2G2U6 1-233, looked up)
chain: MARKVVVVDDEKPIADILEFNLKKEGYDVYCAYDGNDAVDLIYEEEPDIVLLDIMLPGRDGMEVCREVRKKYEMPIIMLTAKDSEIDKVLGLELGADDYVTKPFSTRELIARVKANLRRHYSQPAQDTGNVTNEITIKDIVIYPDAYSIKKRGEDIELTHREFELFHYLSKHMGQVMTREHLLQTVWGYDYFGDVRTVDVTIRRLREKIEDDPSHPEYIVTRRGVGYFLQQHE
notes: cloned in pET-GST; also called GST-WalR; source: E. coli BL21 (DE3), purified (glutathione agarose, Superdex 200); not shown: GST, N-terminal, kept
[3]
  binding result: binds
[4]
  binding result: binds
